Assay results taken from patent US20240254205A1 (UNIVERSITY OF ROCHESTER, published 2024).
Like-named read-outs stand apart in the source and are kept apart here.

B1: 1122C6 (antibody, V domains shown)
VH: QVQLQESGPGLVKPSETLSLTCTVSGGSISSYYWSWIRQPPGKAVEWIGYIFDGGSTDYNPSLKSRVAMSVDASENQFSLKLASVTAADTAVYYCARYRVSGNYYDTPWFDPWGQGLLVTVSS
VL: SYELTQPPSLSASPGQTARITCSGDALPKQDVYWYQQKPGQAPLLVIYKDTERPSGIPERFSGSRSGTTVTLIISGVQAEDEADYYCQSAASSYGYVVFGGGTKLTVL
B2: 1086C12 (antibody, V domains shown)
VH: VQLVESGGGVVQPGRSLRLSCVASGFSLSTYGMLWVRQAPGKGLVWVALISYEEGSNKKYADSVKGRFTISRDNSRNTLYLQMSSLTSDDTGVYYCARDAGCDSVGYYPGRLWGQGTLVTVSS
VL: QSVLTQPPSASGTPGQTVTISCSGTSSNIGSNFVYWYQQLPGTAPKLLIFRNNQRPSGVPDRFSGSKSGTSASLAVSGLRSEDEAEYYCAAWDDSLSGHLVFGGGTKLTVL
B3: KPF2/1092D4 (antibody, V domains shown)
VH: EVQLLESGGQLVQPGGSLRLSCAVSGFTFSRYAMYWVRQAPGKGLEWVSIISGDGGVTFYADSVKGRFTISRDNSKNTLFLQMNSLRADDTAVYYCAKDNQDLDLWSGSYKGTFDDWGQGTLVTVSS
VL: NFMLTQPHSVSGSPGKTVSISCTRSSGIIASNHVQWYQQRPGSAPTTVIFEDNQRPSGVPDRFSGSIDSSSNSASLTISGLKTEDEADYYCQSYDSSRYWVFGGGTKLTVL
B4: 1122C7 (antibody, V domains shown)
VH: EVQLLESGGQLVQPGGSLRLSCAVSGFTFSSYAMYWVRQSPGKGLEWVSIISGDGGVTFYADSVKGRFTISRDNSKNTLYLQMNSLRAEDTAVYYCAKDKQDLDLWSGSYKGTFDEWGQGTLVTVSS
VL: NFMLTQPHSVSGSPGKTVSISCTRSSGIIASNYVQWYQQRPGSAPTTVIFEDNQRPSGVPDRFSGSIDSSSNSASLTISGLKTEDEADYYCQSYDSSRYWVFGGGTKLTVL
B5: 1092E10 (antibody, V domains shown)
VH: EVQLVESGGGSVKPGGSLRLSCAASGFTFTNSWMSWVRQAPGKGLEWVGRIKSKSDGGTTDYAAPVKGRFSISRDDSKSTLFLQMNSLKTEDTAVYYCSAAPFTESNGYKSWDYLYGMDVWGQGTTVTVSS
VL: SYELTQPPSVSVSPGQTATITCSGDKLGDKFASWYQQQPGQSPVLVIYQHTKRPSGIPERFSGSISGSTATLTISGTQAVDEADYYCQAWDSNSYVFGAGTKVTVL
notes: also called 1092E01

Columns and labels:
[1] = target: T1, NA of B/Lee/1940 on infected MDCK cells (influenza B virus B/Lee/1940, UniProt P03474 1-466); experiment: immunofluorescence (IFA) on infected MDCK cells
T1 construct: whole, on cells

[2] = target: T2, recombinant IBV NA protein B/Hong Kong/330/2001 (Victoria lineage) (influenza B virus B/Hong Kong/330/2001)
[3] = target: T2, recombinant IBV NA protein B/Hong …; experiment: avidity ELISA with urea, hMAb at 1 µg/ml
[4] = target: T1, NA of B/Lee/1940 on infected MDCK cells; experiment: immunofluorescence on infected MDCK cells, hMAb at 1 µg/ml
[5] = target: T2, recombinant IBV NA protein B/Hong …; remark: listed apart in the source
[6] = target: T2, recombinant IBV NA protein B/Hong …; experiment: surface plasmon resonance, antibody on the chip, NA flowed over

| Binder | binding result [1] | EC50 (read off the curve) [2] | binding activity maintained in 8 M urea [3] | binding result [4] | Kd [5] | koff [5] | kon [5] | Kd [6] |
| --- | --- | --- | --- | --- | --- | --- | --- | --- |
| B1 | no binding (tested: 1 µg/ml) | – | – | – | – | – | – | – |
| B2 | – | ~0.05 µg/mL | > 75% | binds | – | – | – | – |
| B3 | – | ~0.05 µg/mL | > 75% | binds | 0.185 nM | 4.86e-05 s⁻¹ | 264000 M⁻¹ s⁻¹ | 0.1 nM |
| B4 | – | – | > 75% | binds | – | – | – | – |
| B5 | – | ~0.05 µg/mL | > 75% | binds | – | – | – | – |
